Source: paper PMC11919738, “Mechanism for Vipp1 spiral formation, ring biogenesis, and membrane repair” (Nature Structural & Molecular Biology, 2024)
Substitutions are numbered along the chain they refer to. Names and notes keep the numbering of the source.

B1: Vipp1 (vesicle-inducing protein in plastids 1) from Nostoc punctiforme (natural protein, UniProt B2J6D9 1-258, looked up)
chain: MGLFDRIKRVVSSNLNDLVNKAEDPEKMLEQAILEMQEDLVQLRQGVAQAIAAQKRSEKQYNDAQNEINKWQRNAQLALQKGDENLARQALERKKTYTDTSAALKASLDTQSTQVETLKRNLIQLESKISEAKTKKEMLKARITTAKAQEQLQGMVRGMNTSSAMSAFERMEEKVLMQESRAQALGELAGADLETQFAQLEGGSDVDDELAALKAQMLPPATPVTQAQLPPQQETTPAKSNEVVDAELDSLRKQLDQL
notes: Vipp1, Nostoc punctiforme, UniProt B2J6D9; model built for amino acids 1-214 in Vipp1L1; Forms polymers (helical filaments, rings, sheets, spirals); the number of subunits is not fixed; RingsHS are the same protein purified with 50 mM NaCl in the SEC buffer; also called IM30; native Vipp1; source: E. coli C43 (DE3) with pspA gene knockout, purified (amylose resin, TEV, Ni-NTA, SEC); not shown: …
B2: Vipp1-F197K/L200K (Vipp1 interface 3 mutant) (natural protein, Nostoc punctiforme, UniProt B2J6D9 1-258, looked up)
chain: B1 chain with F197K, L200K
notes: Vipp1, Nostoc punctiforme, UniProt B2J6D9, with F197K and L200K; Co-purified with E. coli membrane (lipid bilayer in the filament lumen); source: E. coli C43 (DE3) with pspA gene knockout, purified (amylose resin, TEV, Ni-NTA, SEC); not shown: His6, N-terminal, cleaved; MBP, N-terminal, cleaved
B3: Vipp1Δα6_(1–219) (Vipp1 with the C-terminal domain truncated) (domain or fragment, Nostoc punctiforme, UniProt B2J6D9 1-219, looked up)
chain: MGLFDRIKRVVSSNLNDLVNKAEDPEKMLEQAILEMQEDLVQLRQGVAQAIAAQKRSEKQYNDAQNEINKWQRNAQLALQKGDENLARQALERKKTYTDTSAALKASLDTQSTQVETLKRNLIQLESKISEAKTKKEMLKARITTAKAQEQLQGMVRGMNTSSAMSAFERMEEKVLMQESRAQALGELAGADLETQFAQLEGGSDVDDELAALKAQMLP
notes: model built for amino acids 1-217; also called Vipp1_(Δα6_L2); Vipp1_(Δα6_L3); source: E. coli C43 (DE3) with pspA gene knockout, purified (amylose resin, TEV, Ni-NTA, SEC); not shown: His6, N-terminal, cleaved; MBP, N-terminal, cleaved

Biological target: the molecule itself
Assay: cryo-EM structure; helical filaments of purified protein, 60 µM, low-salt SEC buffer, helical reconstruction

Protein	binding result
B1	binds
B2	binds
B3	binds
